Changes are numbered by the printed parent chain. In names and notes the source's numbering stands. Where no end group is shown, it is not given here.
Assays:
[1] = biological target: T1, Peptide-19 (cysteine pairing not given here; also: biotinylated (site not given here)); test: ELISA: biotinylated peptide captured on neutravidin plate, Fab titrated, HRP secondary antibody
T1 peptide: PDFCQLYNWPVCAG

[2] = biological target: T2, Peptide-24 (cysteine pairing not given here; also: biotinylated (site not given here)); test: as above
T2 peptide: SVLFCVKNLYCWVT

[3] = biological target: T3, Peptide-22 (cysteine pairing not given here; also: biotinylated (site not given here)); test: as above
T3 peptide: VDFCTIYKWPVCEG

[4] = biological target: T4, Peptide-21 (cysteine pairing not given here; also: biotinylated (site not given here)); test: as above
T4 peptide: IDFCSLYQWPVCGT

[5] = biological target: T5, Peptide-16 (cysteine pairing not given here; also: biotinylated (site not given here)); test: as above
T5 peptide: IDFCLLYDWPVCAS

[6] = biological target: T6, Peptide-11 (cysteine pairing not given here; also: biotinylated (site not given here)); test: as above
T6 peptide: VDFCALYNWPVCET

[7] = biological target: T7, Peptide-15 (cysteine pairing not given here; also: biotinylated (site not given here)); test: as above
T7 peptide: LDFCKLYQWPVCFT

[8] = biological target: T8, Peptide-30 (cysteine pairing not given here; also: biotinylated, site not given here); test: ELISA, Fab on captured biotin-peptide
T8 peptide: TSLICFRNVYCWNV

[9] = biological target: T9, Peptide-29 (cysteine pairing not given here; also: biotinylated, site not given here); test: ELISA: biotinylated peptide captured on neutravidin plate, Fab titrated, HRP secondary antibody
T9 peptide: SYLVCVKNVYCWTA

[10] = biological target: T10, Peptide-25 (cysteine pairing not given here; also: biotinylated (site not given here)); test: ELISA, Fab on captured biotin-peptide; Table 19 peptide set (separate ELISA run)
T10 peptide: VDFCKIYSWPVCHQ

[11] = biological target: T11, Peptide-44 (cysteine pairing not given here; also: biotinylated, site not given here); test: ELISA, Fab on captured biotin-peptide
T11 peptide: VEFCKQWTWFGCMT

[12] = biological target: T12, Peptide-58 (cysteine pairing not given here; also: biotinylated, site not given here); test: ELISA, Fab on captured biotin-peptide
T12 peptide: VEICKQWFYTVCLS

[13] = biological target: T10, Peptide-25; test: ELISA, Fab on captured biotin-peptide; Table 18 peptide set (separate ELISA run)
[14] = biological target: T2, Peptide-24; test: ELISA, Fab on captured biotin-peptide

B1: TBD-1 wt (Fab, V domains shown)
VH: QVQLQQSGSELKKPGASVKVSCKASGYTFTNYGMNWVKQAPGQGLKWMGWINTYTGEPTYTDDFKGRFAFSLDTSVSTAYLQISSLKADDTAVYFCARGGFGSSYWYFDVWGQGSLVTVSS
VL: DIQLTQSPSSLSASVGDRVSITCKASQDVSIAVAWYQQKPGKAPKLLIYSASYRYTGVPDRFSGSGSGTDFTLTISSLQPEDFAVYYCQQHYITPLTFGAGTKVEIKR
notes: Fab; the heavy chain entry is VH-CH1; also called wild-type anti-TROP2 Fab (hRS7); TROP2 Fab
Question: Does B1 bind [1]?
Answer: binds

Question: Does B1 bind [2]?
Answer: binds

Question: Does B1 bind [3]?
Answer: binds

Question: Does B1 bind [4]?
Answer: binds

Question: Does B1 bind [5]?
Answer: binds

Question: Does B1 bind [6]?
Answer: binds

Question: Does B1 bind [7]?
Answer: binds

Question: What about the EC50 [8] of the same binder?
Answer: 0.0091 µM

B2: TBD-11 (HC R98A) (Fab, V domains shown)
VH: B1 VH with R98A
VL: B1 VL
notes: Fab; also called HC R98A mutant
Question: Does B2 bind [9]?
Answer: binds

Question: What about the EC50 [10] of the same binder?
Answer: 0.453 µM

Question: And the EC50 [11]?
Answer: 0.112 µM

Question: What about the EC50 [12] of the same binder?
Answer: 0.0107 µM

Question: What about the EC50 [13] of the same binder?
Answer: 1 µM

B3: TBD-21 (HC F108A) (Fab, V domains shown)
VH: B1 VH with F108A
VL: B1 VL
notes: Fab; also called HC F108A mutant
Question: Which EC50 [14] does the source give for B3 here?
Answer: 0.142 µM

B4: TBD-17 (HC S104A) (Fab, V domains shown)
VH: B1 VH with S104A
VL: B1 VL
notes: Fab; also called HC S104A mutant
Question: With B4 as the binder, how does the EC50 [14] read?
Answer: 0.133 µM
